Source: patent publication EP4682168A1, “ANTI-LIV-1 ANTIBODY AND ANTI-LIV-1 ANTIBODY-DRUG CONJUGATE, AND PHARMACEUTICAL USE THEREOF” (priority 2023, dated 2024)
Where a chain is given by its changes, count along the chain named.

Key:
[1] = biological target: T1, LIV-1 expressed on the cell surface of cancer cell lines (human) (UniProt Q13433); test: flow cytometry, isotype control, Calu6 cells (endogenous LIV-1)
T1 sequence (looked up): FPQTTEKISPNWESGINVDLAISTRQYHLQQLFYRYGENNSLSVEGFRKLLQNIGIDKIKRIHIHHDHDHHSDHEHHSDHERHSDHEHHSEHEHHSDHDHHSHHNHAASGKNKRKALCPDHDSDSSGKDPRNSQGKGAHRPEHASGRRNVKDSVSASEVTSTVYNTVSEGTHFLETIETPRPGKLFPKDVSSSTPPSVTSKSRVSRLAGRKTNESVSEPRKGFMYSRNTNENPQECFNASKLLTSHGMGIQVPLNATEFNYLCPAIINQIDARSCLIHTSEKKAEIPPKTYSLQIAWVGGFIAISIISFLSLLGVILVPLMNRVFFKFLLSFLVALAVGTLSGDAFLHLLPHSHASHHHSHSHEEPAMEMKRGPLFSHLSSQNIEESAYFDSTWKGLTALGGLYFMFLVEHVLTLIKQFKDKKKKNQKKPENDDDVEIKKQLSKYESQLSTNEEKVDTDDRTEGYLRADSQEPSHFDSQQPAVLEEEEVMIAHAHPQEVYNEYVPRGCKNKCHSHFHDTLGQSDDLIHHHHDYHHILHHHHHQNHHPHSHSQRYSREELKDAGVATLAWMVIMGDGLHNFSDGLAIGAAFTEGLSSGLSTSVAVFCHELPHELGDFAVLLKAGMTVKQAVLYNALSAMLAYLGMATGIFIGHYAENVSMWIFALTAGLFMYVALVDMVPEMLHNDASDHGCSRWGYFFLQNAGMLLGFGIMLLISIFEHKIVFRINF

[2] = biological target: T1, LIV-1 expressed on the cell surface of cancer cell lines (human); test: flow cytometry, isotype control, MCF7-Liv1 #7 cells (high exogenous LIV-1)
[3] = biological target: T1, LIV-1 expressed on the cell surface of cancer cell lines (human); test: flow cytometry, isotype control, PC-3 cells (endogenous LIV-1)
[4] = biological target: T1, LIV-1 expressed on the cell surface of cancer cell lines (human); test: flow cytometry, isotype control, MCF7-Liv1 #17 cells (high exogenous LIV-1)
[5] = biological target: T1, LIV-1 expressed on the cell surface of cancer cell lines (human); test: flow cytometry, isotype control, HCC 1806 cells (endogenous LIV-1)
[6] = biological target: T1, LIV-1 expressed on the cell surface of cancer cell lines (human); test: flow cytometry, isotype control, MCF7-Liv1 #12 cells (moderate exogenous LIV-1)
[7] = test system: PA-1 mouse subcutaneous tumors; test: PA-1 ovarian cancer xenograft efficacy study; assay type: in vivo, CD1 athymic nude mice; conditions: Single dose of 3 mg/kg, intravenous injection
Method: (§1) Tumor cells grown in the implantation culture of CD1 athymic nude mice: Calu-6 (2.5 × 10^6 cells in 50% matrigel) from ATCC, PC-3 (2.5 × 10^6 cells) from ATCC, and PA-1 (5 × 10^6 cells in 50% matrigel) from ATCC. Tumor cells grown in the implantation culture of NSG mice: HCC1806 (2.5 × 10^6 cells in 50% matrigel) from ATCC and MCF-7 (10 × 10^6 cells; for the in vivo growth of MCF-7, 8.5 µg/mL estradiol was added to the drinking water of female mice) from NCI.
(§2) When the tumors grew to 150 mm^3, the humanized LIV-1 ADC or the non-binding control ADC (1 mg/kg, 3 mg/kg, 6 mg/kg, or 10 mg/kg) was administered by intravenous injection once every four days for a total of four administrations (q4d × 4), by intravenous injection once every week for a total of 2 administrations (qw × 2), or by single intravenous injection. The tumor volume was monitored using a caliper, and the animals were euthanized when the tumor volume reached about 2000 mm^3. Tumor volume plots were continued for each group until one or more animals were euthanized. All animal procedures were conducted in a facility approved by the Association for Assessment and Accreditation of Laboratory Animal Care in accordance with protocols approved by the Institutional Animal Care and Use Committee. TGI was calculated as follows: TGI (%) = 1−[(Td−T0)/(Cd−C0)] × 100% [formula] […]

[8] = test system: PC3 mouse subcutaneous tumors; test: PC3 prostate cancer xenograft efficacy study; assay type: in vivo, CD1 athymic nude mice; conditions: Single dose of 10 mg/kg, intravenous injection
Method: as §1, §2

[9] = biological target: T1, LIV-1 expressed on the cell surface of cancer cell lines (human); test: flow cytometry, antibody A against IgG1 isotype control, MCF7-Liv1 #7 cells
[10] = biological target: T1, LIV-1 expressed on the cell surface of cancer cell lines (human); test: flow cytometry, antibody A against IgG1 isotype control, MCF7-Liv1 #12 cells
[11] = biological target: T1, LIV-1 expressed on the cell surface of cancer cell lines (human); test: flow cytometry, 10 µg/mL antibody, MCF7-Liv1 #17 cells (high exogenous LIV-1)
[12] = biological target: T1, LIV-1 expressed on the cell surface of cancer cell lines (human); test: flow cytometry, antibody A against IgG1 isotype control, PC-3 cells
[13] = biological target: T1, LIV-1 expressed on the cell surface of cancer cell lines (human); test: flow cytometry, 10 µg/mL antibody, MCF7-Liv1 #12 cells (moderate exogenous LIV-1)
[14] = biological target: T1, LIV-1 expressed on the cell surface of cancer cell lines (human); test: flow cytometry, 10 µg/mL antibody, PC-3 cells (endogenous LIV-1)
[15] = biological target: T1, LIV-1 expressed on the cell surface of cancer cell lines (human); test: flow cytometry, 10 µg/mL antibody, MCF7-Liv1 #7 cells (high exogenous LIV-1)
[16] = biological target: T1, LIV-1 expressed on the cell surface of cancer cell lines (human); test: flow cytometry, antibody A against IgG1 isotype control, MCF7-Liv1 #17 cells
[17] = biological target: T1, LIV-1 expressed on the cell surface of cancer cell lines (human); test: flow cytometry, antibody A against IgG1 isotype control, Calu6 cells
[18] = biological target: T1, LIV-1 expressed on the cell surface of cancer cell lines (human); test: flow cytometry, antibody A against IgG1 isotype control, HCC 1806 cells
[19] = biological target: T1, LIV-1 expressed on the cell surface of cancer cell lines (human); test: flow cytometry, 10 µg/mL antibody, Calu6 cells (endogenous LIV-1)
[20] = biological target: T1, LIV-1 expressed on the cell surface of cancer cell lines (human); test: flow cytometry, 10 µg/mL antibody, HCC 1806 cells (endogenous LIV-1)
[21] = biological target: human LIV-1 antigen (with a His tag, NP_036451.1, amino acids Phe229-Ile323) (human) (UniProt Q13433); test: ForteBio (BLI)
[22] = biological target: T2, LIV-1 expressed on the cell surface of cancer cell lines (human, UniProt Q13433 29-755); test: cell-based or functional assay
T2 sequence (looked up): T1 sequence (looked up)

Molecule: non-specific isotype control commercial antibody IgG (BioXCell, BE0297)
- MFI (RFU) [1]: 4440 RFU
- MFI (RFU) [2]: 3410 RFU
- MFI (RFU) [3]: 2840 RFU
- MFI (RFU) [4]: 1510 RFU
- MFI (RFU) [5]: 2180 RFU
- MFI (RFU) [6]: 3120 RFU

B1: L-McMMAE: Ladiratuzumab antibody L conjugated to MC-MMAE, DAR of 3.5-4; prior-art ADC targeting Liv-1 (conjugate, chains of the INN, looked up)
VH: QVQLVQSGAEVKKPGASVKVSCKASGLTIEDYYMHWVRQAPGQGLEWMGWIDPENGDTEYGPKFQGRVTMTRDTSINTAYMELSRLRSDDTAVYYCAVHNAHYGTWFAYWGQGTLVTVSS
VL: DVVMTQSPLSLPVTLGQPASISCRSSQSLLHSSGNTYLEWYQQRPGQSPRPLIYKISTRFSGVPDRFSGSGSGTDFTLKISRVEAEDVGVYYCFQGSHVPYTFGGGTKVEIK
modifications: MC-MMAE payload
- Tumor growth inhibition rate TGI% (day 13 after administration) [7]: 26.68%
- Tumor growth inhibition rate TGI% (day 24 after administration) [8]: 103.92%

B2: Antibody A (antibody, human IgG1, kappa, V domains shown)
VH: EVQLVQSGAEVKKPGATVKISCKASGLNIEDYYMHWVQQAPGKGLEWMGWIDPENGDTEYAEKFQGRVTITADTSTNTAYMELSSLRSEDTAVYYCTVHNAHYGTWFAYWGQGTTVTVSS
VL: DIVMTQTPLSLSVTPGQPASISCRSSQTLVRSDGNTYLEWYLQKPGQSPQLLIYRVSNRFSGVPDRFSGSGSGTDFTLKISRVEAEDVGVYYCFQGSHVPYTFGGGTKLEIKR
- MFI ratio (MFI of anti-LIV-1/MFI of control antibody) [9]: 38.7
- MFI ratio (MFI of anti-LIV-1/MFI of control antibody) [10]: 6.7
- MFI (RFU) [11]: 107000 RFU
- MFI ratio (MFI of anti-LIV-1/MFI of control antibody) [12]: 2
- MFI (RFU) [13]: 20900 RFU
- MFI (RFU) [14]: 5660 RFU
- MFI (RFU) [15]: 132000 RFU
- MFI ratio (MFI of anti-LIV-1/MFI of control antibody) [16]: 71.1
- MFI ratio (MFI of anti-LIV-1/MFI of control antibody) [17]: 2.5
- MFI ratio (MFI of anti-LIV-1/MFI of control antibody) [18]: 2
- MFI (RFU) [19]: 11100 RFU
- MFI (RFU) [20]: 4420 RFU

B3: Antibody A-1 (antibody, human IgG1, kappa, V domains shown)
VH: B2 VH with N77D
VL: B2 VL
- Kd [21]: 0.0524 nM
- koff [21]: 4.17e-05 s⁻¹
- kon [21]: 796000 M⁻¹ s⁻¹

B4: A-BrAcMMAE (antibody, human IgG1, kappa, V domains shown)
VH: B2 VH
VL: B2 VL
modifications: MMAE drug-linker (compound 11, bromoacetyl-Val-Cit-PAB-MMAE) on reduced cysteine sulfhydryls; average DAR 3.5-4; positions not given
- IC50 (nM) for inhibition of proliferation, Calu6 cells, CellTiterGlo2 [22]: 11 nM
- IC50 (nM) for inhibition of proliferation, MCF7-Liv1 #7 cells, CellTiterGlo2 [22]: 0.03 nM
- IC50 (nM) for inhibition of proliferation, MCF7-Liv1 #12 cells, CellTiterGlo2 [22]: 0.031 nM
- IC50 (nM) for inhibition of proliferation, MCF7-Liv1 #17 cells, CellTiterGlo2 [22]: 0.05 nM
